Laboratory results from patent US20230028110A1 (ADAPTATE BIOTHERAPEUTICS, published 2023).
Substitutions are numbered along the chain they refer to. In names and notes the source's numbering stands. Where two headings read alike, the source gives them in different places. One block for each binder: values may come before it.

Assays:
[1] = target: Vδ1 chain of the γδ TCR on human Vδ1 γδ T cells (human); experiment: cell-based or functional assay
[2] = target: Vδ1 chain of the γδ TCR on human Vδ1 γδ T cells (human); experiment: cell-based or functional assay; remark: listed apart in the source
[3] = target: 4-1BB on 4-1BB+ NFAT Jurkat cells (human, UniProt Q07011); experiment: cell-based or functional assay
Chain of 4-1BB on 4-1BB+ NFAT Jurkat cells (Q07011 24-255 limits assumed): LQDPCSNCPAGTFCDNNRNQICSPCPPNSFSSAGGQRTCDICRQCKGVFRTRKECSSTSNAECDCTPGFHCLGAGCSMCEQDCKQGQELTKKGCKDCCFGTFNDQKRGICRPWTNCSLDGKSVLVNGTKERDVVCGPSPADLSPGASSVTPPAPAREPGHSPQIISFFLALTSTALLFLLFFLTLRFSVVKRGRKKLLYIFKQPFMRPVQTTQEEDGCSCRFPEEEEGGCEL

[4] = target: T1, L1 (DV1-GV4), soluble human Vδ1/Vγ4 γδ TCR heterodimer in leucine zipper format (human); experiment: SPR (Reichert 4SPR), antibody on Protein A chip, antigen flown over
T1 construct: Biotinylated in the DELFIA ranking; also called Antigen L1 (TRDV1/TRGV4); human DV1-GV4; not shown: gamma chain: Vγ4 (TRGV4) domain on a TCR constant region, leucine zipper, histidine tag
T1 sequence (main, as listed by the source): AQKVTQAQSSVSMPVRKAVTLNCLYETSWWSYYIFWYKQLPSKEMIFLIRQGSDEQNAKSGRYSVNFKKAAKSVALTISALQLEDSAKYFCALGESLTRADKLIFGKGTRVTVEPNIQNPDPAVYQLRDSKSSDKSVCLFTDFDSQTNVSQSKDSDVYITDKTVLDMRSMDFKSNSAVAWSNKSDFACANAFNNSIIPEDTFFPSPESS

[5] = target: T2, Vδ1 chain of the γδ TCR on human Vδ1 γδ T cells (human); experiment: flow cytometry on Vδ1 γδ T-cells, anti-human IgG secondary antibody, % cells bound IgG
T2 construct: whole, on cells; also called cell surface Vδ1 TCR; Vδ1-positive γδ T cells
T2 sequence (A0A1B0GX56 22-115, stated change not applied): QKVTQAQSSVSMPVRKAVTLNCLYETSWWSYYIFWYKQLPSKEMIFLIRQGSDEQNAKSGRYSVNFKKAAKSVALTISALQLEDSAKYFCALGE

[6] = target: T2, Vδ1 chain of the γδ TCR on human Vδ1 γδ …; experiment: cell-based or functional assay; remark: listed apart in the source
[7] = target: T1, L1 (DV1-GV4), soluble human Vδ1/Vγ4 γδ …; experiment: DELFIA, 100 nM biotinylated L1
[8] = target: T2, Vδ1 chain of the γδ TCR on human Vδ1 γδ …; experiment: cell-based or functional assay; remark: listed apart in the source
[9] = target: T1, L1 (DV1-GV4), soluble human Vδ1/Vγ4 γδ …; experiment: DELFIA ELISA, human antigen; heat map cell of the clone
[10] = target: T1, L1 (DV1-GV4), soluble human Vδ1/Vγ4 γδ …; experiment: SPR (Reichert 4SPR), antibody on Protein A chip, human Vδ1 antigen as analyte; average of two replicates on two instruments
Description: (§1) The binding affinity of the antibodies to target (i.e. the Vδ1 chain of a γδ TCR) is established by SPR analysis using a Reichert 4SPR instrument (Reichert Technologies).
(§2) The binding interaction of Vδ1 and the affinity-matured mAbs were modelled according to Langmuir 1:1 binding.

[11] = target: T2, Vδ1 chain of the γδ TCR on human Vδ1 γδ …; experiment: flow cytometry binding to Vδ1 γδ T cells, donor TS164; column head printed 'IC50', unit nM from the chart axis and FIG. 34D
Protocol: (§3) All incubation steps were performed at 4° C. and mAb binding was determined using flow cytometry to measure the median level of fluorescence. Logarithmic four parameter dose-response curves were fitted using GraphPad Prism 9. […] For Vδ1-positive γδ T cell, data is represented as the mean two donors.
(§4) A range of target cells were assayed to determine the specificity and affinity of Vδ1 mAb binding. This included expanded skin-derived Vδ1 γδ T-cells, HEK293T cells, Raji cells, and multiple leukocyte subsets within human primary blood mononuclear cells. Adherent or semi-adherent cells (skin-derived Vδ1 γδ T-cells, HEK293T) were detached from tissue culture flask and resuspended in PBS. Similarly, non-adherent cell types (Raji, PBMC), were harvested and resuspended in PBS. Cells were seeded at a final density of 100,000 cells per well in v-bottom 96-well plates. Cells underwent centrifugation and the cell pellets were resuspended in FcR blocking reagent according to the manufacturer's instructions, and incubated for 20 minutes at 4C prior to a further wash. […] To determine the quantity of mAb bound to the cell surface, the cells were then stained with a murine anti-human IgG secondary antibody, conjugated to APC (dilution: 1:100). For Vδ1 γδ T-cells, HEK293T and Raji, the cells were also stained solely with a viability dye.

[12] = target: T2, Vδ1 chain of the γδ TCR on human Vδ1 γδ …; experiment: flow cytometry binding to Vδ1 γδ T cells, donor ATS006; column head printed 'IC50', unit nM from the chart axis and FIG. 34D
Protocol: as §3, §4

[13] = target: T2, Vδ1 chain of the γδ TCR on human Vδ1 γδ …; experiment: cell-based or functional assay; remark: listed apart in the source
[14] = target: T2, Vδ1 chain of the γδ TCR on human Vδ1 γδ …; experiment: flow cytometry, Vδ1 γδ T cells of donor TS164, mAb titrated up to about 500 nM at 4 C, anti-human IgG detection
Protocol: as §3, §4

[15] = target: T2, Vδ1 chain of the γδ TCR on human Vδ1 γδ …; experiment: flow cytometry, Vδ1 γδ T cells of donor ATS006, mAb titrated up to about 500 nM at 4 C, anti-human IgG detection
Protocol: as §3, §4

[16] = target: T2, Vδ1 chain of the γδ TCR on human Vδ1 γδ …; experiment: cell-based or functional assay; remark: listed apart in the source
[17] = target: T2, Vδ1 chain of the γδ TCR on human Vδ1 γδ …; experiment: cell-based or functional assay; remark: listed apart in the source
[18] = target: T3, Cyno DV1/GV77 antigen, recombinant cynomolgus Vδ1 heterodimer (cynomolgus monkey); experiment: DELFIA ELISA, cyno antigen; heat map cell of the clone
T3 construct: also called cyno TRDV1; Cyno DV1-77; not shown: delta CDR3/J, TCR constant region, zipper and tag; the whole gamma chain GV77
T3 sequence (delta, as listed by the source limits assumed): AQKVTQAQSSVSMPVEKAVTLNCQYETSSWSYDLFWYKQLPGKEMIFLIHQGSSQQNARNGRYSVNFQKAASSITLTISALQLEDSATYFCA

[19] = target: T4, Her2 on Her2+ breast cancer cells (SK-BR-3, BT-474) (human, UniProt P04626 23-1255); experiment: flow cytometry on SK-BR-3 cells, anti-human IgG secondary antibody
T4 construct: whole, on cells; also called ErbB-2; CD340

[20] = target: T1, L1 (DV1-GV4), soluble human Vδ1/Vγ4 γδ …; experiment: DELFIA ELISA on antigen L1 (TRDV1/TRGV4), 1/2 dilution series of mAb
[21] = target: T1, L1 (DV1-GV4), soluble human Vδ1/Vγ4 γδ …; experiment: DELFIA ELISA, 0.4 nM human TRDV1 antigen; heat map cell of the clone
[22] = target: T1, L1 (DV1-GV4), soluble human Vδ1/Vγ4 γδ …; experiment: SPR (Reichert 4SPR), antibody on Protein A chip, Vδ1 heterodimer at 6.25-100 nM as analyte
[23] = target: T3, Cyno DV1/GV77 antigen, recombinant …; experiment: as above
[24] = target: T1, L1 (DV1-GV4), soluble human Vδ1/Vγ4 γδ …; experiment: SPR (Reichert 4SPR), antibody on Protein A chip, human Vδ1 antigen as analyte; average of two replicates on two instruments; remark: listed apart in the source
Description: as §1, §2

[25] = target: T3, Cyno DV1/GV77 antigen, recombinant …; experiment: SPR (Reichert 4SPR), antibody on Protein A chip
[26] = target: T1, L1 (DV1-GV4), soluble human Vδ1/Vγ4 γδ …; experiment: SPR (summary table)
[27] = target: T1, L1 (DV1-GV4), soluble human Vδ1/Vγ4 γδ …; experiment: SPR, captured IgG, human DV1-GV4 flown over

IC50 (read off the curve), Vδ1 TCR downregulation, γδ T-cells alone [1]: ~0.2 nM | IC50 (read off the curve), Vδ1 TCR downregulation, γδ T-cells with activated 4-1BB+ CD8 T-cells [2]: ~0.1 nM | EC50 (read off the curve), 4-1BB+ NFAT Jurkat activation assay [3]: 10 to 20 nM | Kd [4]: 1.2 nM | EC50 (read off the curve) [5]: ~0.3 nM
B1: Anti-Vδ1xanti-4-1BB (ADT1-4-2xutomilumab) bispecific antibody (bispecific antibody, human IgG1, kappa)
light: DIQMTQSPPALSASVGDRVTITCRASQDINDWLAWYQHKPGKAPKLLIYDASSLESGVPLRFSGSGSGTEFTLTISSLQPDDFATYYCQQKYSAPQVTFGQGTRLEIKRTVAAPSVFIFPPSDEQLKSGTASVVCLLNNFYPREAKVQWKVDNALQSGNSQESVTEQDSKDSTYSLSSTLTLSKADYEKHKVYACEVTHQGLSSPVTKSFNRGEC
heavy: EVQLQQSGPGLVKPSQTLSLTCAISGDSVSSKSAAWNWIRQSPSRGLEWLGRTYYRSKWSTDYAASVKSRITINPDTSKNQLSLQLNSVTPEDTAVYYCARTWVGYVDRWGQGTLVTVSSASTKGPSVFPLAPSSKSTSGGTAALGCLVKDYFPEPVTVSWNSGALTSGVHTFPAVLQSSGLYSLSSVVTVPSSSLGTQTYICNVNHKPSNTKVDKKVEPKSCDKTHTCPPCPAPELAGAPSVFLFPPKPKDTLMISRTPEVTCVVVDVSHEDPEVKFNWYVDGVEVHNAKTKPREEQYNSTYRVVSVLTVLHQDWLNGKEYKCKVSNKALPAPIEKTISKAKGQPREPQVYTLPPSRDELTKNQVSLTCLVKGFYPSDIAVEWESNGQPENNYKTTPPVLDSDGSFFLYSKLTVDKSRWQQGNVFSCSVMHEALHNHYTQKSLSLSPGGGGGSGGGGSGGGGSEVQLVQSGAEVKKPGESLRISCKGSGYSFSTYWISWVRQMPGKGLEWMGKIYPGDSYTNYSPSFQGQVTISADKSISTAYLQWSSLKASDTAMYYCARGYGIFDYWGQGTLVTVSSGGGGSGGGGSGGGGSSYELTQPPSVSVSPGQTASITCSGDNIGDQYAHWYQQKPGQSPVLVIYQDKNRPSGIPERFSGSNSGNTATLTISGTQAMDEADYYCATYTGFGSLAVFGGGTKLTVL
notes: also called ADT1-4-2x 4-1BB; Vδ1-4-1BB bispecific antibody

IC50 TCR DR (no THP-1) [8]: 0.164 nM | IC90 TCR DR (noTHP-1) [8]: 1.04 nM | ELISA signal (heat map) [9]: 30800 | Kd [10]: 4.99 nM | EC50 [11]: 2.68 nM | EC50 [12]: 37.2 nM
B3: ADT1-7-20 (antibody, IgG1, V domains shown)
VH: EVQLVESGGGLVKPGGSLRLSCAASGFTFSDYYMSWIRQAPGKGLEWVSYISSSGSTIYYADSVKGRFTISRDNAKNSLYLQMNSLRAEDTAVYYCARVDYQEAFDIWGQGTLVTVSS
VL: DIQMTQSPSSLSASVGDRVTIACRAGQSIGTYLNWYQQKPGKAPKLLIYVASSLQSGVPSRFSGSGSGTEFTLTISSLQPEDFATYYCQQSYSGLDTFGRGTKVEIK
notes: IgG1

IC50 TCR DR (no THP-1), one donor only [8]: 0.173 nM | IC50 of TCR downregulation (Vδ1 TCR staining as % MFI, soluble antibody, 2 h, average of two γδ cell donors) [13]: 6.26 nM | ELISA signal (heat map) [9]: 32700 | Kd [10]: 1.04 nM | EC50 [11]: 196 nM | EC50 [12]: 93 nM
B4: ADT1-7-61 (antibody, IgG1, V domains shown)
VH: B3 VH with V99D, Q102D, E103D
VL: B3 VL with Y92A, G94E, D96L
notes: IgG1

IC50 TCR DR (no THP-1) [8]: 0.161 nM | IC90 TCR DR (noTHP-1) [8]: 0.79 nM | ELISA signal (heat map) [9]: 37100 | EC50 (read off the curve) [14]: ~1 nM | EC50 (read off the curve) [15]: ~5 nM | Kd [10]: 3.78 nM | EC50 [11]: 0.952 nM | EC50 [12]: 5.15 nM
B5: ADT1-7-3 (antibody, IgG1, V domains shown)
VH: B3 VH with D100S, Q102A
VL: B3 VL
notes: IgG1

Kd [26]: 0.08 nM | Kd [27]: 0.08 nM
B10: ADT1-4-1 (antibody, IgG1, V domains shown)
VH: EVQLQQSGPGLVKPSQTLSLTCAISGDSVSSKSAAWNWIRQSPSRGLEWLGRTYYRSKWSTDYAASVKSRITINPDTSKNQLSLQLNSVTPEDTAVYYCARTWVGYADVWGQGTLVTVSS
VL: DIQMTQSPPALSASVGDRVTITCRASQDINDWLAWYQHKPGKAPKLLIYDASSLESGVPLRFSGSGSGTEFTLTISSLQPDDFATYYCQQRYSTPIVTFGQGTRLEIK
notes: IgG1

IC90 TCR DR (noTHP-1) [17]: 1 nM
B11: ADT1-4-86 (antibody, IgG1, V domains shown)
VH: B10 VH with A34V, V104L, Y106N, A107V
VL: B10 VL with R91K, T94E, I96Q

The next lines start with the binder.

B2: 1251_P02_G10 (antibody, IgG1, V domains shown)
VH: B3 VH with K13Q, V99H, D100S, Y101W, Q102N, E103D, Q110R
VL: DIQMTQSPSSLSASVGDRVTITCRASQSISSHLNWYQQKPGKAPKLLIYAASSLQSGVPSRFSASGSGTDFTLTISSLQPEDFATYYCQQSYSTLLTFGGGTKVEIK
notes: IgG1
TCR downregulation (EC50 µg/ml-3 donors) [6]: 0.849 µg/mL | DELFIA signal at 100 nM L1 [7]: 17100 fluorescence units

B6: 1245_P01_E07 (antibody, IgG1, V domains shown)
VH: B3 VH with E1Q, Q102A, E103D
VL: B3 VL with G94T, D96L
notes: also called ADT1-7; parental ADT1-7
IC50 TCR DR (no THP-1) [8]: 22.4 nM | IC90 TCR DR (noTHP-1) [8]: 139 nM | DELFIA signal at 100 nM L1 [7]: 163000 fluorescence units | ELISA signal (heat map) [9]: 5470 | Kd [10]: 38.1 nM | EC50 [11]: 226 nM | EC50 [12]: > 100 nM

B7: 1245_P01_B07 (antibody, IgG1, V domains shown)
VH: B3 VH with V5L, V99E, D100N, Q102L, E103N, Q110R
VL: B2 VL with A25T, I29L, S31N, H32Y, A64G, L95P, V104L
notes: IgG1
TCR downregulation (EC50 µg/ml), 1 donor only [6]: 0.35 µg/mL | DELFIA signal at 100 nM L1 [7]: 64300 fluorescence units

B8: 1245_P02_G04 (antibody, IgG1, V domains shown)
VH: B10 VH with E1Q, V104S, A107V
VL: B10 VL with L60S, R91S, I96Q
notes: also called ADT1-4; parental ADT1-4
TCR downregulation IC50, soluble assay, added in solution [16]: 38.3 nM | IC50 TCR DR (no THP-1) [17]: 38.2 nM | IC90 TCR DR (noTHP-1) [17]: 72.4 nM | DELFIA signal at 100 nM L1 [7]: 5900 fluorescence units | ELISA signal (heat map) [18]: 196 | binding result [19]: no binding (tested: about 300 nM) | EC50 (read off the curve) [20]: ~0.07 µg/mL | ELISA signal (heat map) [21]: 1200 | Kd [22]: 47 nM | Kd [23]: 397 nM | Kd [24]: 149 nM | EC50 [11]: 576 nM | EC50 [12]: 108 nM

B9: ADT1-4 (S74L) (antibody, V domains shown)
VH: B10 VH with E1Q, V104S, A107V
VL: DIQMTQSPPALSASVGDRVTITCRASQDINDWLAWYQHKPGKAPKLLIYDASSLESGVPLRFSGSGSGTEFTLTISSLQPDDFATYYCQQSYSTPQVTFGQGTRLEIKR
notes: Captured on Protein A; also called ADT1-4 (574L)
fold increase in affinity against ADT1-4 [25]: ~5 fold | Kd [22]: 3.5 nM | Kd [23]: 77 nM
